Measurements reported in publication PMC2744858.

What was measured:
14-3-3ζ = 14-3-3ζ (UniProt P63104); assay: PACS-2 co-immunoprecipitation, 14-3-3ζ-myc western blot; conditions: reference: wild-type HA-PACS-2; sites S437
14-3-3σ = 14-3-3σ (UniProt P31947); assay: GST pull-down, 14-3-3σ-His6 western blot; conditions: reference: wild-type GST-PACS-2MR; sites S437

Substance | binding against the reference (14-3-3ζ) | binding against the reference (14-3-3σ)
PACS-2 (from UniProt Q86VP3) PACS-2 S437A | lost | 
PACS-2 middle region (MR) (from UniProt Q86VP3) S437A |  | lost
